Target: MBP-MT2 fusion protein (maltose binding protein fused to two copies of metallothionein), without gold (mouse) (UniProt P02802)
Assay: STEM mass measurement (PCMass25); expected 260 kDa for the antibody with two MBP-MT2

Chain of UniProt P02802 (P02802 other isoform, or with tags, fused parts or gaps): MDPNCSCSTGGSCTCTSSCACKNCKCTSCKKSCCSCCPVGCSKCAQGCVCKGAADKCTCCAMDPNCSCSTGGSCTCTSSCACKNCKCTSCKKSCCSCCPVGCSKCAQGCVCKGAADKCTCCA

commercially available monoclonal IgG2a MBP antibody (New England Biolabs)
mean STEM mass of the antibody complex particles: 205 kDa

From patent publication US20090239215A1
